Test [1] has as its target T1, HSP70 (human HSP70; the antigen of the binning, humanization and variant binding assays) (human, UniProt P0DMV8 1-641, limits assumed).
T1 construct: also called hu HSP70
In words: BLI, anti-human Fc capture, antigen dilution series, 1:1 fit. As for the experimental part:
(§1) Further kinetics assays were conducted for select antibody variants. Assays were performed as follows. Antibody variants were immobilized using anti-human Fc onto the surface of a series of biosensors. Antigen was passed over the surface to generate a binding response. Binding data for the antibody: antigen interactions were collected at 25° C. on the biosensors. A dilution series of the antigen was used in the association step, in order to fit results globally and get the best values for ka, kd, and KD. The response data for the binding of antigen to the surface immobilized antibody were fitted to a 1:1 binding model.

For test [2], the target named is T1, HSP70 (human HSP70; the antigen of the …). The test can be described thus: BLI, anti-human Fc capture, steady state. On the procedure:
as §1
In general terms: BLI is a label-free optical method that tracks binding on a fibre tip over time.

Test [3] has the same target. In words: BLI, anti-human Fc capture, antigen 100 nM. On the procedure:
Binding assays were performed as follows. Antibody variants were immobilized using anti-human Fc onto the surface of a series of biosensors at […]. Antigen, at 100 nM, was passed over the surface to generate a binding response. Binding data for the antibody:antigen interactions were collected at 25° C. on the biosensors. In Table 14, X=610 represents captured antigen value (nM) at the beginning of the dissociation phase (measured at 610 seconds after the biosensor was initially contacted with antigen) and X=1495 represents captured antigen value (nM) at the end of the dissociation phase (measured at 1495 seconds after the biosensor was initially contacted with antigen). In Table 14, antibodies with an X=610 value greater than 0.2 and a % dissociation less than 10% are shown in bold.

T1 sequence (P0DMV8 whole entry, change not shown): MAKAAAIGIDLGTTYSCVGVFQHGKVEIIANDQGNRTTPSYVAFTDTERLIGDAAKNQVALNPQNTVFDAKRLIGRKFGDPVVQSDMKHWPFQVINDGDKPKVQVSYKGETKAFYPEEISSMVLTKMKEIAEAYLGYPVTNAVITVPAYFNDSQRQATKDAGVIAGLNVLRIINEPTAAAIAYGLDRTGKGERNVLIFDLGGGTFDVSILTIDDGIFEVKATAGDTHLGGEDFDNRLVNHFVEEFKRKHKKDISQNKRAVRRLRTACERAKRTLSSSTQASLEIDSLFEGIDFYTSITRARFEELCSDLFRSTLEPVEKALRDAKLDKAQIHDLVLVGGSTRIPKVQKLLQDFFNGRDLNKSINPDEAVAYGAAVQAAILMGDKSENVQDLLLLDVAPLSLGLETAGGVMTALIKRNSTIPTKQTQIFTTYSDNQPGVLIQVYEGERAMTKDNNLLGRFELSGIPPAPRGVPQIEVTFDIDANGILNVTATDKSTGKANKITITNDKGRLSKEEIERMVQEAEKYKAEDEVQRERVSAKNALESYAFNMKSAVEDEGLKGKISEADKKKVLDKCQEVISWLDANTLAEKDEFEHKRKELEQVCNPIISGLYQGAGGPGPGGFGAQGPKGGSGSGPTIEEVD

B1: h77A-1.1 (antibody, V domains shown)
VH: QIQLVQSGAEVKKPGASVKVSCKASGYTFTKYGMNWVRQAPGQGLEWMGWINTYTGEPTYADDFKGRFTFTTDTSTSTAYMELRSLRSDDTAVYFCARYDHAMDYWGQGTLVTVSS
VL: EIVLTQSPDSLAVSLGERATINCKSSQSLLNSGTRKNYLAWYQQKAGQSPKLLIYWTSTRESGVPDRFSGSGSGTDFTLTIDSLQAEDVAVYYCKQSYTLYTFGGGTKVEIK
notes: captured by anti-human Fc
In the case of B1, in test [1], the Kd (usually the free concentration of one partner at which half of the binding sites on the other are occupied at equilibrium, for simple one-to-one binding) is 0.69 nM; the koff (usually a measure of how fast the partners let go of each other) was 6.11e-05 s⁻¹; the association rate constant (kon) (usually the rate constant with which the complex forms) amounted to 88500 M⁻¹ s⁻¹. For the same molecule, the “KD Steady State” value in test [2] was 0.032 nM. Besides, the “% Diss” value in test [3] came to 3.88%.

B2: h77A-1.10 (antibody, V domains shown)
VH: QIQLVQSGDEVKKPGASVKVSCKASGYTFTNYGMNWVRQAPGQGLEWMGWINTYTGEPTYADDFKGRFTFTTDTSTSTAYMELRSLRSDDTAVYFCARYDHAMDYWGQGTLVTVSS
VL: EIVLTQSPDSLAVSLGERATINCKSSQSLLNSGTRKNYLAWYQQKAGQSPKLLIYWTSTRESGVPDRFSGSGSGTDFTLTIDSLQAEDVAVYYCKQSYTLYTFGGGTKVEIK
notes: captured by anti-human Fc
In the case of B2, in test [1], the affinity, expressed as Kd, was 2.48 nM; the koff came to 0.000145 s⁻¹; the association rate constant (kon) was determined as 58400 M⁻¹ s⁻¹. The “KD Steady State” value in test [2] came to 2.6 nM. The “% Diss” value in test [3] stood at 8.76%.

B3: h77A-1.22 (antibody, V domains shown)
VH: QIQLVQSGAEVKKPGASVKVSCKASGYTFTNYGMNWVRQAPGQGLEWMGWINTYTGEPTYSDDFKGRFTFTTDTSTSTAYMELRSLRSDDTAVYFCARYDHAMDYWGQGTLVTVSS
VL: EIVLTQSPDSLAVSLGERATINCKSSQSLFNSGTRKNYLAWYQQKAGQSPKLLIYWTSTRESGVPDRFSGSGSGTDFTLTIDSLQAEDVAVYYCKQSYTLYTFGGGTKVEIK
notes: captured by anti-human Fc
In test [1], B3 yielded a dissociation constant (Kd) of 1.14 nM, a koff of 7.64e-05 s⁻¹ and a kon of 66900 M⁻¹ s⁻¹. Further, the “KD Steady State” value in test [2] was 0.81 nM. Further, the “% Diss” value in test [3] was 6.5%.

B4: h77A-1.17 (antibody, V domains shown)
VH: QIQLVQSGAEVKKPGASVKVSCKASGYTFTKYGMNWVRQAPGQGLEWMGWINTYTGEPTYADDFKGRFTFTTDTSTSTAYMELRSLRSDDTAVYFCARYDHSMDYWGQGTLVTVSS
VL: EIVLTQSPDSLAVSLGERATINCKSSQSLLNSGTRKNYLAWYQQKAGQSPKLLIYWTSTRESGVPDRFSGSGSGTDFTLTIDSLQAEDVAVYYCKQSYTLYTFGGGTKVEIK
notes: captured by anti-human Fc
For B4, in test [1], the affinity, expressed as Kd, was 1.51 nM; the off-rate constant (koff) came to 9.24e-05 s⁻¹; the association rate constant (kon) was found to be 61400 M⁻¹ s⁻¹. Further, the “KD Steady State” value in test [2] amounted to 1.3 nM. In test [3], the “% Diss” value was found to be 7.04%.

B5: h77A-1.18 (antibody, V domains shown)
VH: QIQLVQSGAEVKKPGASVKVSCKASGYTFTNYGMNWVRQAPGQGLEWMGWINTYTGEPTYADDFKGRFTFTTDTSTRTAYMELRSLRSDDTAVYFCARYDHAMDYWGQGTLVTVSS
VL: EIVLTQSPDSLAVSLGERATINCKSSQSLLNSGTRKNYLAWYQQKAGQSPKLVIYWTSTRESGVPDRFSGSGSGTDFTLTIDSLQAEDVAVYYCKQSYTLYTFGGGTKVEIK
notes: captured by anti-human Fc
In test [1], B5 came in with a Kd of 1.44 nM, a koff of 9.1e-05 s⁻¹ and an on-rate constant (kon) of 63200 M⁻¹ s⁻¹. Further, in test [2], the “KD Steady State” value is 0.81 nM. Moreover, in test [3], the “% Diss” value stood at 7.15%.

B6: h77A-1.19 (antibody, V domains shown)
VH: QIQLVQSGAEVKKPGASVKVSCKASGYTFTNYGMNWVRQAPGQGLEWMGWINTYTGEPTYVDDFKGRFTFTTDTSTSTAYMDLRSLRSDDTAVYFCARYDHAMDYWGQGTLVTVSS
VL: EIVLTQSPDSLAVSLGERATINCKSSQSLLNSGTRKNYLAWYQQKAGQSPKLLIYWTSTRESGVPDRFSGSGSGTDFTLTIDSLQAEDVAVYYCKQSYTLYTFGGGTKVEIK
notes: captured by anti-human Fc
Turning to B6, in test [1], the Kd was 1.26 nM, the koff stood at 0.000111 s⁻¹ and the on-rate constant (kon) was determined as 88500 M⁻¹ s⁻¹. The “KD Steady State” value in test [2] is 1.2 nM. In test [3], the “% Diss” value is 8.73%.

B7: h77A-1.16 (antibody, V domains shown)
VH: QIQLVQSGAEVKKPGASVKVSCKASGYTFTKYGMNWVRQAPGQGLEWMGWINTYTGEPTYADDFKGRFTFTTDTSTSTAYMELRSLRSDDTAVYFCARYDHAMDYWGQGTLVTVSS
VL: EIVLTQSPDSLAVSLGERATIKCKSSQSLLNSGTRKNYLAWYQQKAGQSPKLLIYWTSTRESGVPDRFSGSGSGTDFTLTIDSLQAEDVAVYYCKQSYTLYTFGGGTKVEIK
notes: captured by anti-human Fc
Take B7: in test [1], the dissociation constant Kd stood at 1.27 nM, the koff came to 6.84e-05 s⁻¹ and the kon was found to be 54000 M⁻¹ s⁻¹. Also, the “KD Steady State” value in test [2] was 1.3 nM. In test [3], the “% Diss” value is 3.25%.

B8: h77A-1.14 (antibody, V domains shown)
VH: QIQLVQSGAEVKKPGASVKVSCKASGYTFTNYGMNWVRQAPGQGLEWMGWINTYTGEPTYTDDFKGRFTFTTDTSTSTAYMELRSLRSDDTAVYFCARYDHAMDYWGQGTLVTVSS
VL: EIVLTQSPDSLAVSLGERATINCKSSQSLLNSGTRKNYLAWYQQKAGQSPKLLIYWTSTRESGVPDRFSGSGSGTDFTLTIDSLQAEDVAVYYCKQSYTLYTFGGGTKVEIK
notes: captured by anti-human Fc
For B8, in test [1], the dissociation constant (Kd) is 1.97 nM, the koff was 0.000124 s⁻¹ and the kon was 63100 M⁻¹ s⁻¹. Further, the “KD Steady State” value in test [2] came out at 0.77 nM. Also, the “% Diss” value in test [3] worked out at 7.88%.

B9: h77A-1.8 (antibody, V domains shown)
VH: QIQLVQSGAEVKKPGASVKVSCKASGYTFTNYGMNWVRQAPGQGLEWMGWINTYTGEPTYADDFKGRFTFTTDTSTSTAYMELRSLRSDDTAVYFCARYDHAMDYWGQGTLVTVSS
VL: EIVLTQSPDSLAVSLGERATIKCKSSQSLLNSGTRKNYLAWYQQKAGQSPKLLIYWTSTRESGVPDRFSGSGSGTDFTLTIDSLQAEDVAVYYCKQSYTLYTFGGGTKVEIK
notes: captured by anti-human Fc
In test [1], B9 showed a dissociation constant Kd of 1.35 nM, a koff of 7.42e-05 s⁻¹ and an on-rate constant (kon) of 54800 M⁻¹ s⁻¹. In addition, the “KD Steady State” value in test [2] was determined as 0.31 nM. In addition, the “% Diss” value in test [3] was 8.62%.

B10: h77A-1.30 (antibody, V domains shown)
VH: QIQLVQSGAEVKKPGASVKVSCKASGYTFTNYGMNWVRQAPGQGLEWMGWINTYTGEPTYADDFKGRFTFTTDTSTSTAYMEVRSLRSDDTAVYFCARYDHAMDYWGQGTLVTVSS
VL: EIVLTQSPDSLAVSLGERATINCKSSQSLLNSGTRKNYLAWYQQKAGQSPKLIIYWTSTRESGVPDRFSGSGSGTDFTLTIDSLQAEDVAVYYCKQSYTLYTFGGGTKVEIK
notes: captured by anti-human Fc
In test [1], B10 yielded a dissociation constant (Kd) of 1.93 nM, a koff of 0.000109 s⁻¹ and a kon of 56700 M⁻¹ s⁻¹. In addition, in test [2], the “KD Steady State” value amounted to 0.86 nM. Further, in test [3], the “% Diss” value was determined as 5.1%.

B11: h77A-1.46 (antibody, V domains shown)
VH: QIQLVQSGVEVKKPGASVKVSCKASGYTFTNYGMNWVRQAPGQGLEWMGWINTYTGEPTYADDFKGRFTFTTDTSTSTAYMELRSLRSDDTAVYFCARYDHAMDYWGQGTLVTVSS
VL: EIVLTQSPDSLAVSLGERATIKCKSSQSLLNSGTRKNYLAWYQKKAGQSPKLLIYWTSTRESGVPDRFSGSGSGTDFTLTIDSLQAEDVAVYYCKQSYTLYTFGGGTKVEIK
notes: captured by anti-human Fc
In test [1], B11 came in with an equilibrium dissociation constant (Kd) of 2.24 nM, an off-rate (koff) of 0.000123 s⁻¹ and an association rate constant (kon) of 54800 M⁻¹ s⁻¹. The “KD Steady State” value in test [2] amounted to 1.2 nM. In addition, in test [3], the “% Diss” value was 6.22%.

B12: h77A-1.27 (antibody, V domains shown)
VH: QIQLVQSGAEVKKPGASVKVSCKASGYTFTNYGMNWVRQAPGQGLEWMGWINTYTGEPTYTDDFKGRFTFTTDTSTSTAYMELRSLRSDDTAVYFCARYDHAMDYWGQGTLVTVSS
VL: EIVLTQSPDSLTVSLGERATINCKSSQSLLNSGTRKNYLAWYQQKAGQSPKLLIYWTSTRESGVPDRFSGSGSGTDFTLTIDSLQAEDVAVYYCKQSYTLYTFGGGTKVEIK
notes: captured by anti-human Fc
In test [1], B12 came in with a dissociation constant Kd of 1.41 nM, a dissociation rate constant (koff) of 0.000108 s⁻¹ and an on-rate (kon) of 76400 M⁻¹ s⁻¹. Further, the “KD Steady State” value in test [2] was 0.89 nM. Further, the “% Diss” value in test [3] was found to be 6.74%.

B13: h77A-1.12 (antibody, V domains shown)
VH: QIQLVQSGAEVKKPGASVKVSCKASGYTFTNYGMNWVRQAPGQGLEWMGWINTYTGEPTYADDFKGRFTFTTDTSTSTAYMELRSLRSDDTAVYFCARYDHAMDYWGQGTLVTVSS
VL: EIVLTQSPDSLAVSLGERATINCKSSQSLFNSGTRKNYLAWYQQKAGQSPKLLIYWTSTRESGVPDRFSGSGSGTDFTLTIDSLQAEDVAVYYCKQSYTLYTFGGGTKVEIK
notes: captured by anti-human Fc
With B13, in test [1], the equilibrium dissociation constant (Kd) was 1.43 nM, the off-rate (koff) came to 7.37e-05 s⁻¹ and the on-rate (kon) was determined as 51700 M⁻¹ s⁻¹. Also, the “KD Steady State” value in test [2] was 1.1 nM. For the same molecule, in test [3], the “% Diss” value is 4.74%.

B14: h77A-1.6 (antibody, V domains shown)
VH: QIQLVQSGAEVKKPGASVKVSCKASGYTFTNYGMNWVRQAPGQGLEWMGWINTYTGEPTYADDFKGRFTFTTDTSTRTAYMELRSLRSDDTAVYFCARYDHAMDYWGQGTLVTVSS
VL: EIVLTQSPDSLAVSLGERATINCKSSQSLLNSGTRKNYLAWYQQKAGQSPKLLIYWTSTRESGVPDRFSGSGSGTDFTLTIDSLQAEDVAVYYCKQSYTLYTFGGGTKVEIK
notes: captured by anti-human Fc
In test [1], B14 showed a Kd of 2.11 nM, a koff of 0.000114 s⁻¹ and an on-rate (kon) of 54200 M⁻¹ s⁻¹. Further, in test [2], the “KD Steady State” value amounted to 1.8 nM. Besides, in test [3], the “% Diss” value was found to be 6.58%.

(Values after US20250084155A1 (University of Texas, published 2025).)
